This is an account of results in PMC5115869.

This experiment addresses GCN4pLI-HCN2(CNBD) tetramer (human). In words: SEC; GCN4pLI-HCN2(CNBD) in solution; column and buffer not told for this run. (In general: Size exclusion chromatography separates by hydrodynamic size, large species first.)

Take GCN4pLI-HCN2(CNBD) tetramer: the stoichiometry N turned out to be 4.

Broadly, the stoichiometry N is a count of units in the complex or per binding partner.
